Results from paper PMC5670239, “Structural basis for mutually exclusive co-transcriptional nuclear cap-binding complexes with either NELF-E or ARS2” (Nature Communications, 2017).

T1: CBC (Homo sapiens, UniProt P52298)
T1 sequence (P52298 1-156): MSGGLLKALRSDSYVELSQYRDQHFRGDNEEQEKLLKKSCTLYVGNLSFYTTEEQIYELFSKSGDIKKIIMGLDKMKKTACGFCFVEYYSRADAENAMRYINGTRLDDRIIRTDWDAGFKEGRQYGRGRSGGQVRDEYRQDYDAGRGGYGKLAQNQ
T1 sequence (Q09161 20-790 partner): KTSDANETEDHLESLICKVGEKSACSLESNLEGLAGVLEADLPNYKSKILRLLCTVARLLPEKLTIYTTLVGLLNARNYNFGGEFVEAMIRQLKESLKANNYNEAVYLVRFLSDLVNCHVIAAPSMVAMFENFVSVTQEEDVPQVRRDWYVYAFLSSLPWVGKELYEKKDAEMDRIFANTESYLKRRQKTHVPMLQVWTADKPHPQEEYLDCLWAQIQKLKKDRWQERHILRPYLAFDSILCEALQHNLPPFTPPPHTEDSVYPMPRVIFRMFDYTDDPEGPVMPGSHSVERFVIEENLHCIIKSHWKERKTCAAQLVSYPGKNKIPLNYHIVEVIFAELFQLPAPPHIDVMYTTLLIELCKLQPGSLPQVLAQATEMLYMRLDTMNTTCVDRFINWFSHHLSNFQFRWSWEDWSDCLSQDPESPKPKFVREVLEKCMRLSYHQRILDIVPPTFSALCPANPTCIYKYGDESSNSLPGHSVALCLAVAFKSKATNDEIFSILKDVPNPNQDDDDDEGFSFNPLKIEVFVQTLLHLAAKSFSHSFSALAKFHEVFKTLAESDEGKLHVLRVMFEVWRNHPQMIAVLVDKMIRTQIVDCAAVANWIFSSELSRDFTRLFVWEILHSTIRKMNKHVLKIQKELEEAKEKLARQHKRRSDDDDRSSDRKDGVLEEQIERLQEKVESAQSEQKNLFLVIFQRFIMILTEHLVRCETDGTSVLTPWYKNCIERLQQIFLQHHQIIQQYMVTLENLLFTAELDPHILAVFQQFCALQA

T2: m^7GTP-CBC (Homo sapiens, UniProt P52298+Q09161)
T2 construct: 6-histidine tag (pETM30 vector) (N, cleaved yes); made in house; host or cells: CBP20 in E. coli Rosetta 2; CBP80ΔNLS in High Five insect cells; heterodimer reconstituted on Ni-sepharose
T2 sequence (Q09161 20-790): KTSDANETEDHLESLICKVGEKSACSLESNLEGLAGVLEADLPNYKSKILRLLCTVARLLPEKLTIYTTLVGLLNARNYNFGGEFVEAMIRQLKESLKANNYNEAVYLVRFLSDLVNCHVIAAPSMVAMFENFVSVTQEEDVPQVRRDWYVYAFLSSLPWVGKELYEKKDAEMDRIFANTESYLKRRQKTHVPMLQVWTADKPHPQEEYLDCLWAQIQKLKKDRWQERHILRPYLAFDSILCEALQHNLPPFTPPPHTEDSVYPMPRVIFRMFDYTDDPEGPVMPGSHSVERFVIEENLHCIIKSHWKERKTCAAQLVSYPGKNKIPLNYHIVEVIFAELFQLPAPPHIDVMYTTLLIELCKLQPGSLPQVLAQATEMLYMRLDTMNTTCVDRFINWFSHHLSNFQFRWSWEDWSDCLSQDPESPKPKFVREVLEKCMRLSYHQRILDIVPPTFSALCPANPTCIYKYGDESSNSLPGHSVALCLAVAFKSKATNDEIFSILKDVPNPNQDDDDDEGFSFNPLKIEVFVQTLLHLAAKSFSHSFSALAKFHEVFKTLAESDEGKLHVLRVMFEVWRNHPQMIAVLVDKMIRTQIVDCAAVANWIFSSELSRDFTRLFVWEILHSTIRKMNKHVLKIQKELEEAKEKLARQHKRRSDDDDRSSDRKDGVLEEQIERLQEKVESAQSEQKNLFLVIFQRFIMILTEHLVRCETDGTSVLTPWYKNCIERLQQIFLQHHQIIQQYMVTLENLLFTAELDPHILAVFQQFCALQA
T2 sequence (P52298 1-156): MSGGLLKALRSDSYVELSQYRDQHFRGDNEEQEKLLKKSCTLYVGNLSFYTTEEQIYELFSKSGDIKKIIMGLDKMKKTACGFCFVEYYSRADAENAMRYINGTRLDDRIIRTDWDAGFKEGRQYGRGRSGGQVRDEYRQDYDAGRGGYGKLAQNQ


What was measured:
CBC [1] = biological target: T1, CBC; assay: ITC, binding to CBC without cap analogue; conditions: ITC (MicroCal ITC200), 25 °C, 20 mM HEPES, 120 mM NaCl, 2 mM TCEP, pH 7.8, single-site fit; no cap analogue pre-bound; mean ± SD of at least two independent experiments; SD
Text: hARS2 isoform-4 (871 residues, UniProt:Q9BXP5-4, also known as isoform-e, NP_001122326) constructs (residues 147–871, 147–845, 763–871, 763–845, 827–871) hNELF-E (NM_002904.5) (244–380, 244–360) and hPHAX (NM_032177.3) (1–394, 103–294, 103–308, 103–327) were cloned into pETM11 (EMBL). Full-length hNELF-E (1–380) was cloned into pFASTBac and CBP20 into pETM30. Primers used are given in Supplementary Table 2. All constructs were expressed in E. coli Rosetta 2 (Novagen), except full-length NELF-E and CBP80ΔNLS (CBP80 with residues 1–19 deleted[2]), which were expressed in High Five insect cells (Life Technology). Cells were harvested and lysed by sonication in lysis buffer containing 50 mM HEPES, pH 7.8, 300 mM NaCl, 10% (v/v) glycerol, 5 mM β-mercaptoethanol. Lysates were clarified by centrifugation and applied on an equilibrated Ni-sepharose column (GE Healthcare), washed with 20 mM imidazole in lysis buffer, and eluted with 300 mM imidazole in lysis buffer. While dialysing into 20 mM HEPES, pH 7.8, 120 mM NaCl, 10% (v/v) glycerol, 5 mM β-mercaptoethanol, the N-terminal 6-histidine-tag was cleaved with His-tagged Tobacco Etch Virus (TEV) protease overnight in a ratio 1:100 mg TEV per mg protein. The cleaved protein was further purified first on Ni-sepharose to remove TEV and then using an anion exchange column (HiTrap Q, GE Healthcare) followed if necessary by a Heparin column (GE Healthcare). In both cases a NaCl gradient from 50 to 800 mM in 20 mM HEPES 7.8, 0.5 mM tris(2-carboxyethyl)phosphine was used. To reconstitute the CBC heterodimer, cleared His-tagged CBP20 lysate was first immobilised on a Ni-sepharose column. After washing the column with lysis buffer, the cleared CBP80 lysate was applied to the column and further purification steps performed as described above. To remove the access of CBP20 the flow through of the Ni-column after TEV cleavage was loaded on an anion exchange column (HiTrap Q, GE Healthcare) and CBC eluted by a NaCl gradient as described above. In the text we refer to CBP80ΔNLS and CBP80ΔNLS-CBP20 as CBP80 and CBC, respectively. ARS2^845–871, NELF-E^354–380, and NELF-E^360–380 peptides, with or without FAM label at the N-terminus, were purchased from GenScript.

m^7GTP-CBC = biological target: T2, m^7GTP-CBC; assay: Fluorescence polarisation with FAM-labelled C-terminal peptides; assay type: binding; conditions: competition, 40 nM FAM peptide, 25 µM m^7GTP, 25 °C, n = 3
Method: Fig. 4 Incompatibility of ARS2-PHAX and NELF-E binding to CBC. a, b Competition on m^7GTP-sepharose. a In separate experiments, different amounts of ARS2^147–871 were added to preformed CBC–NELF–E complex immobilised on m^7GTP-sepharose. […] The fluorophore FAM is represented with a star. Note that different constructs of NELF-E and ARS2 were used in c, d, and e compared to f, g, and h and are therefore represented by slightly different shapes. Error bars show the SD of three experiments
Fluorescence anisotropy binding assays were performed with N-terminal FAM-labelled ARS2^845–871 and […] peptides. 40 nM peptides were titrated with increasing concentrations of proteins in 20 mM HEPES, pH 7.8, 120 mM NaCl, 2 mM tris(2-carboxyethyl)phosphine. For the competition assay CBC–ARS2 and CBC–NELF–E complexes were preformed in the presence of 25 µM m^7GTP using 40 nM ARS2^827–871(FAM) peptide together with 60 nM CBC and 40 nM NELF-E^354–380(FAM) peptide with 1 µM CBC. […] To observe a change in polarisation at reasonable protein concentrations, CBC and NELF-E^244–380 concentrations that saturate half of the FAM-labelled peptides were used to preform the individual complexes. Fluorescence polarisation was measured at 25 °C with a microplate reader (CLARIOstar BMG LABTECH) using an excitation wavelength of 495 nm and emission wavelength of 515 nm. For analysis the polarisation value for the peptide alone was subtracted from the measurements.

CBC [2] = biological target: T1, CBC; assay: Size exclusion chromatography (gel filtration) co-elution with CBC, without m^7GTP; assay type: binding; conditions: fractions analysed by SDS-PAGE, absence of m^7GTP
Method: Fig. 1 The interaction of CBC with ARS2 is enhanced in the presence of m^7GTP. a Schematic diagram of the domain structure of ARS2 based on ref. [26]. b Gel filtration chromatogram and Coomassie-stained SDS-PAGE of CBC-ARS2 in the presence and absence of m^7GTP. Purified recombinant CBC and ARS2^147–871 were mixed with (orange) or without (blue) 500 µM m^7GTP and subjected to gel filtration. Their elution profiles were overlaid (left) and single fractions analysed by SDS-PAGE (middle and right). Purified recombinant CBC and C-terminally truncated ARS2^147–845 were mixed with 500 µM m^7GTP and analysed in a similar way (bottom left). c ITC data and curve fit to derive the affinity of different ARS2 constructs for CBC. CBC or m^7GTP-CBC in the sample cell was titrated by ARS2. […] K D values and standard deviation represent the average from at least two independent experiments. d Sequence alignment of the C-terminus of ARS2. Conserved residues are highlighted in red. Figure made with ESPript[54]
Fig. 2 The interaction of CBC with NELF-E is enhanced in the presence of m^7GTP. a Schematic diagram of the domain structure of NELF-E. b Gel filtration chromatogram and Coomassie-stained SDS-PAGE of CBC-NELF-E in the presence and absence of m^7GTP. […] Their elution profiles were overlaid (left) and single fractions analysed by SDS-PAGE (middle and right). […]

Row | Kd (CBC [1]) [nM] | Change of polarisation on titration to m^7GTP-CBC-ARS2^845–871(FAM) (m^7GTP-CBC; 60 nM CBC) | Change of polarisation on titration to m^7GTP-CBC-NELF-E^354–380(FAM) (m^7GTP-CBC; 1 µM CBC) | Molecule | Interaction with CBC by SEC (CBC [2])
1 | 350 ± 71 | did not affect the polarisation | did not change the polarisation | PHAX 103–327: human PHAX residues 103–327, includes the full PHAX RBD (protein, UniProt Q9H814 103-327, looked up, fragment) SQKPPVAGGKKINNIWGAVLQEQNQDAVATELGILGMEGTIDRSRQSETYNYLLAKKLRKESQEHTKDLDKELDEYMHGGKKMGSKEEENGQGHLKRKRPVKDRLGNRPEMNYKGRYEITAEDSQEKVADEISFRLQEPKKDLIARVVRIIGNKKAIELLMETAEVEQNGGLFIMNGSRRRTPGGVFLNLLKNTPSISEEQIKDIFYIENQKEYENKKAARKRRT | 
2 |  |  |  | PHAX 120–308: human PHAX residues 120–308 (protein, UniProt Q9H814 120-308, looked up, fragment) AVLQEQNQDAVATELGILGMEGTIDRSRQSETYNYLLAKKLRKESQEHTKDLDKELDEYMHGGKKMGSKEEENGQGHLKRKRPVKDRLGNRPEMNYKGRYEITAEDSQEKVADEISFRLQEPKKDLIARVVRIIGNKKAIELLMETAEVEQNGGLFIMNGSRRRTPGGVFLNLLKNTPSISEEQIKDIF | No interaction via SEC
